In article PMC5934636:
Substitutions are numbered along the chain they refer to.

T1: hLa R32A/K34A/K37A (human, UniProt P05455 1-408, R32A;K34A;K37A)
T1 sequence: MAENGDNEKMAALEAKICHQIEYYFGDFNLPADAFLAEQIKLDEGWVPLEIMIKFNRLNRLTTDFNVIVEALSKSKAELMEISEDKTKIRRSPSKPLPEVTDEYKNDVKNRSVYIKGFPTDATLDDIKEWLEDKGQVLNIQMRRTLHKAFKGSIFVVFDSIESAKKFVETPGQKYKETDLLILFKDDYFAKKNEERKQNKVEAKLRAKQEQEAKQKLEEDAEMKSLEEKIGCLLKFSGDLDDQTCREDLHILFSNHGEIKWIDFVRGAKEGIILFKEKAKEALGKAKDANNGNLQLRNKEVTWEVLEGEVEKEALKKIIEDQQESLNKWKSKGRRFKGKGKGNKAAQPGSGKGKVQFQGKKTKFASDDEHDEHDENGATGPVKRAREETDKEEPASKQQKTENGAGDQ

T2: hLa K86A/T87A/K88A (human, UniProt P05455 1-408, K86A;T87A;K88A)
T2 sequence: T1 sequence with A32R, A34K, A37K, K86A, T87A, K88A

T3: human La (hLa) (human, UniProt P05455 1-408)
T3 sequence: T1 sequence with A32R, A34K, A37K

B1: A20 (ssRNA)
RNA: AAAAAAAAAAAAAAAAAAAA
B2: U10 (ssRNA)
RNA: UUUUUUUUUU
B3: U20 (ssRNA)
RNA: UUUUUUUUUUUUUUUUUUUU

Columns and labels:
[1] = target: T1, hLa R32A/K34A/K37A; test: EMSA
[2] = target: T2, hLa K86A/T87A/K88A; test: EMSA
[3] = target: T3, human La (hLa); test: competition

| Binder | binding result [1] | binding result [2] | binding result [3] |
| --- | --- | --- | --- |
| B1 | binds | – | – |
| B2 | binds | binds | – |
| B3 | – | – | binds |
